Data as given in PMC8080067, “Tight binding of cytochrome b5 to cytochrome P450 17A1 is a critical feature of stimulation of C21 steroid lyase activity and androgen synthesis” (The Journal of Biological Chemistry, 2021).
Substitutions are numbered along the chain they refer to. Names and notes keep the numbering of the source. “Also recorded” adds a separate entry of the source. Ends that are not written are not given here.

Assays:
P450 17A1 = target: T1, P450 17A1 (Homo sapiens, UniProt P05093); test: Inhibition of reconstituted P450 17A1 steroid oxidation reactions by peptides; assay type: biochemical
T1 construct: made in house; host or cells: Escherichia coli (P450 17A1 in JM109)
From the text: The “b5 peptide” corresponds to residues 43 to 52 of b5, and the “17A1 peptide” corresponds to residues 347 to 358 of P450 17A1 (see Experimental procedures section and Fig. S7).

[1] = target: P450cam (Pseudomonas putida) (UniProt P00183); test: fluorescence titration; conditions: cited from earlier work
cytochrome c = cytochrome c (UniProt P99999); test: fluorescence titration; conditions: cited from earlier work
metmyoglobin = metmyoglobin (UniProt P02144); test: fluorescence titration; conditions: cited from earlier work
[2] = target: T2, Alexa 488-T70C-b5:P450 17A1 complex (Homo sapiens, UniProt P00167+P05093, T70C); test: Peptide addition to Alexa 488-T70C-b5:P450 17A1 complex (gain of fluorescence); assay type: binding; conditions: even at a concentration of 160 μM; data not presented
T2 construct: made in house; host or cells: Escherichia coli (P450 17A1 in JM109; T70C-b5 plasmid in DH5α)
From the text: Peptides were obtained corresponding to the putative binding sites of P450 17A1 and b5 (see Experimental procedures section and Fig. S7).

[3] = substrate: CC(=O)C1CCC2C3CC=C4C[C@@H](O)CC[C@]4(C)C3CC[C@]12C; test: purified protein, by the assay type; conditions: other: 17α-hydroxylation, pH 7.4, 30.0 °C
[4] = substrate: CC(=O)[C@@]1(O)CCC2C3CC=C4C[C@@H](O)CC[C@]4(C)C3CC[C@@]21C; test: purified protein, by the assay type; conditions: other: lyase reaction (conversion to androstenedione or DHEA), pH 7.4, 30.0 °C
[5] = substrate: CC(=O)[C@H]1CC[C@H]2[C@@H]3CCC4=CC(=O)CC[C@]4(C)[C@H]3CC[C@]12C; test: purified protein, by the assay type; conditions: other: 17α-hydroxylation, pH 7.4, 30.0 °C
WT P450 17A1 [6] = target: T3, WT P450 17A1 (Homo sapiens, UniProt P05093); assay type: biochemical; design: made in house; host or cells: Escherichia coli (P450 17A1 in JM109)
T3 sequence (P05093 1-508): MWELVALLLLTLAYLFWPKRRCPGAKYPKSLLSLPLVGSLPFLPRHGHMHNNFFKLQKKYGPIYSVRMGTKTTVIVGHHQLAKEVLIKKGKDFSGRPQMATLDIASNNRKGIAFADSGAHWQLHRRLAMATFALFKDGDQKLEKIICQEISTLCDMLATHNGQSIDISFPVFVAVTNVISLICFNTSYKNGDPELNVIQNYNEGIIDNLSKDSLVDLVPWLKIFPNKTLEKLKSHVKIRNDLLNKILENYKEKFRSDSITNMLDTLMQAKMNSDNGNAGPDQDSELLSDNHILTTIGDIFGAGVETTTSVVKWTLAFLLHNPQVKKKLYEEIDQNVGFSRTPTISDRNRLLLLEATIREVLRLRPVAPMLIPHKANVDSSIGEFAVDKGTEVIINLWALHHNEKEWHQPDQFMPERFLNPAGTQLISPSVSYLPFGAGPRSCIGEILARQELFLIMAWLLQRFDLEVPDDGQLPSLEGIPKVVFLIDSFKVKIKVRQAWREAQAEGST
Description: Figure S4. Stimulation of lyase activities by b5, T70C- b5, and NanoTemper Blue-T70C-b5. Catalytic assays for the lyase reactions were performed and analyzed as described in the main text.

WT P450 17A1 [7] = target: T4, WT P450 17A1 (human, UniProt P05093 1-508); test: other fluorescence titration; as a1, with pregnenolone present at 10 μM; conditions: both partners purified
T4 construct: cytochrome P450 17A1, human; approximate Mr 57 kDa; also called cytochrome P450 17A1; CYP17A1; source: E. coli JM109 (pCW vector), purified (Ni2+-NTA)
T4 sequence (looked up): T3 sequence (P05093 1-508)

WT P450 17A1 [8] = target: T4, WT P450 17A1; test: other fluorescence titration; as a1, with progesterone present at 10 μM; conditions: both partners purified
WT P450 17A1 [9] = target: T4, WT P450 17A1; test: other fluorescence titration; as a1, with 17-OH pregnenolone present at 10 μM; conditions: both partners purified
WT P450 17A1 [10] = target: T4, WT P450 17A1; test: other fluorescence titration; as a1, with 17-OH progesterone present at 10 μM; conditions: both partners purified
WT P450 17A1 [11] = target: T4, WT P450 17A1; test: stopped-flow fluorescence; dissociation: preformed Alexa 488-T70C-b5:P450 17A1 complex mixed with 30 μM unlabeled b5; excitation 488 nm, emission >530 nm, single exponential; conditions: both partners purified
WT P450 17A1 [12] = target: T4, WT P450 17A1; test: other fluorescence titration; 50 nM Alexa 488-T70C-b5 in 100 mM potassium phosphate pH 7.4 titrated with P450 17A1 (WT or variant); excitation 480 nm, emission 513 nm; quadratic fit; no substrate; no phospholipid vesicles; apparent Kd; conditions: both partners purified

T1 sequence (P00167 whole entry partner, one chain of several): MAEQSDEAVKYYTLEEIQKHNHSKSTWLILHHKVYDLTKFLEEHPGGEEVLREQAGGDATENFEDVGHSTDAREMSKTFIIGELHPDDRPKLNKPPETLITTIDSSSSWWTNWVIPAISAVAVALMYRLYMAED
P450cam (Pseudomonas putida), sequence (P00183 2-415): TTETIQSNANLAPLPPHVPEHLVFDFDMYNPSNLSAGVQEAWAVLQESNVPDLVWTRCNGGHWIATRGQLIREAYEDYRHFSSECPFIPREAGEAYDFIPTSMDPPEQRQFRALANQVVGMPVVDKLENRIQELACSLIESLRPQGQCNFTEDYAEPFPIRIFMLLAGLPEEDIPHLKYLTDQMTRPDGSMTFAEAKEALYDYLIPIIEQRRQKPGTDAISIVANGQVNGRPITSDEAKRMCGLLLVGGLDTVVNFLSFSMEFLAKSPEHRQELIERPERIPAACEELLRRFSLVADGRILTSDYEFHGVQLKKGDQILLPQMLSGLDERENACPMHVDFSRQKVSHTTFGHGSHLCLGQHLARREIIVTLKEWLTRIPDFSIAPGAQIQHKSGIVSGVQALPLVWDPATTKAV
T2 sequence (P00167 whole entry T70C, one chain of several): as the sequence (P00167 whole entry partner, one chain of several) above, with T70C counted along it
metmyoglobin, sequence (P02144 2-154): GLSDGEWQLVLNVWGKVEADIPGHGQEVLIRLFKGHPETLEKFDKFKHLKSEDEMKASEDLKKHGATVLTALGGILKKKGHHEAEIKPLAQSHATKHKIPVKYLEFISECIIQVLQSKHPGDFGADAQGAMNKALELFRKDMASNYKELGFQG
cytochrome c, sequence (P99999 2-105): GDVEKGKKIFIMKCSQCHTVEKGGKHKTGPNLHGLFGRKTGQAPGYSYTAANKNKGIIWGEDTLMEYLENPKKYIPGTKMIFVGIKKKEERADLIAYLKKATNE

## RNRLLLLEATIR [P450 peptide, R N R L L L L E A T I R]
P450 17A1
  inhibition of progesterone 17α-hydroxylation: only at the very highest concentration
P450 17A1; b5 present at 10-fold higher concentration than P450, listed as P450 17A1 peptide
  inhibition of lyase reaction (17α-OH pregnenolone): more inhibitory to the lyase reaction (17α-OH pregnenolone) than the b5 peptide; also recorded: weak inhibition

## cytochrome b5 (T65C labeled) (from UniProt P00173)
[1]
  Kd: 1000 nM
Cytochrome c
  Kd: 1000 nM
metmyoglobin
  Kd: 1000 nM

## EHPGGEEVLRE [b5 peptide, E H P G G E E V L R E]
[2]
  gain of fluorescence of Alexa 488-T70C-b5:P450 17A1 complex: did not result in a gain of fluorescence

B1: WT P450 17A1 (Homo sapiens) (protein)
chain: T3 sequence (P05093 1-508)
[3]; WT
  Km: 0.47 ± 0.20 µM
  kcat: 0.0147 ± 0.000833 s⁻¹
  kcat/Km: 31700 M⁻¹ s⁻¹
[4]; WT
  Km: 6.7 ± 2.1 µM
  kcat: 0.0917 s⁻¹
  kcat/Km: 13800 M⁻¹ s⁻¹
[5]; WT
  Km: 7.8 ± 1.4 µM
  kcat: 0.107 ± 0.00833 s⁻¹
  kcat/Km: 13700 M⁻¹ s⁻¹

B2: P450 17A1 R358Q variant (Homo sapiens; R358Q) (protein)
chain: T3 sequence (P05093 1-508) with R358Q
[3]; R358Q
  Km: 2.6 ± 1.4 µM
  kcat: 0.00967 ± 0.0015 s⁻¹
  kcat/Km: 3670 M⁻¹ s⁻¹
[4]; R358Q
  Km: 10 ± 5 µM
  kcat: 0.000933 s⁻¹
  kcat/Km: 83.3 M⁻¹ s⁻¹
[5]; R358Q
  Km: 4.6 ± 0.7 µM
  kcat: 0.00717 ± 0.000333 s⁻¹

B3: P450 17A1 R347H variant (Homo sapiens; R347H) (protein)
chain: T3 sequence (P05093 1-508) with R347H
[3]; R347H
  Km: 1.5 ± 0.5 µM
  kcat: 0.00883 ± 0.000667 s⁻¹
  kcat/Km: 5830 M⁻¹ s⁻¹
[4]; R347H
  Km: 4.8 ± 1.7 µM
  kcat: 0.000717 s⁻¹
  kcat/Km: 150 M⁻¹ s⁻¹
[5]; R347H
  Km: 8.1 ± 2.2 µM
  kcat: 0.003 ± 0.000333 s⁻¹
  kcat/Km: 333 M⁻¹ s⁻¹

B4: P450 17A1 E305G variant (Homo sapiens; E305G) (protein)
chain: T3 sequence (P05093 1-508) with E305G
[3]; E305G
  Km: 5.7 ± 4.6 µM
  kcat: 0.00117 ± 0.000333 s⁻¹
  kcat/Km: 167 M⁻¹ s⁻¹
[4]; E305G
  Km: 9.4 ± 3.7 µM
  kcat: 0.000933 s⁻¹
  kcat/Km: 100 M⁻¹ s⁻¹
[5]; E305G
  Km: 3.1 ± 0.4 µM
  kcat: 0.00317 ± 0.000167 s⁻¹
  kcat/Km: 1000 M⁻¹ s⁻¹

B5: Blue-T70C-b5: T70C-b5 labeled with the proprietary NanoTemper BLUE fluorescent dye (protein, UniProt P00167 2-134, looked up, variant T70C)
Cytochrome b5: AEQSDEAVKYYTLEEIQKHNHSKSTWLILHHKVYDLTKFLEEHPGGEEVLREQAGGDATENFEDVGHSCDAREMSKTFIIGELHPDDRPKLNKPPETLITTIDSSSSWWTNWVIPAISAVAVALMYRLYMAED
modifications: NanoTemper BLUE fluorescent dye label
WT P450 17A1 [6]
  stimulation of lyase activities: stimulated the lyase reactions

B6: Alexa 488-T70C-b5 (natural protein, human)
chain: MAEQSDEAVKYYTLEEIQKHNHSKSTWLILHHKVYDLTKFLEEHPGGEEVLREQAGGDATENFEDVGHSCDAREMSKTFIIGELHPDDRPKLNKPPETLITTIDSSSS
modifications: Alexa Fluor 488 maleimide conjugated to the cysteine of T70C; extent of modification 74%
notes: cytochrome b5 (CYB5A, b5), human, T70C; printed theoretical mass 16.9 kDa; Heme protein; also called labeled b5; fluorescently labeled variant of human b5
WT P450 17A1 [7]
  Kd: 12 ± 5 nM
WT P450 17A1 [8]
  Kd: 5.8 ± 2.3 nM
WT P450 17A1 [9]
  Kd: 2.2 ± 1 nM
WT P450 17A1 [10]
  Kd: 6 ± 1 nM
WT P450 17A1 [11]
  koff: 1.9 ± 0.2 s⁻¹
WT P450 17A1 [12]
  Kd: 2.5 ± 0.6 nM
